# T1: FcγRIIb (human, UniProt P31994 43-217)
# T1 construct: extracellular domain; Soluble extracellular domain with C-terminal His tag, expressed in FreeStyle293 cells; also called FcgRIIb; 2b; not shown: C-terminal His tag
# T1 sequence (looked up): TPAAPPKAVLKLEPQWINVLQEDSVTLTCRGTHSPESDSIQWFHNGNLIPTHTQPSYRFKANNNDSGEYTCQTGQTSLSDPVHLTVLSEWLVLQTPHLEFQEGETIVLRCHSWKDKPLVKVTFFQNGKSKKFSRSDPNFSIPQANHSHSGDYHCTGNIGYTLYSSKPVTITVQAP
# T2: FcγRIIa H (human, UniProt P12318 34-217)
# T2 construct: extracellular domain; Soluble extracellular domain with C-terminal His tag, expressed in FreeStyle293 cells; also called FcgRIIa H; 2aH; not shown: C-terminal His tag
# T2 sequence (looked up): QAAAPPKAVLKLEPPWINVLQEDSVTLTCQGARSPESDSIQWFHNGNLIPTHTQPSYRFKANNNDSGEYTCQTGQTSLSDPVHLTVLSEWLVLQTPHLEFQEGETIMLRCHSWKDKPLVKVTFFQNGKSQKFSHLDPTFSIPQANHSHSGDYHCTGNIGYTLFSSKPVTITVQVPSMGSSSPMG
# B1: GpH7-A5/GpH7-B3 variant G237_02A/GpL16-k0 (antibody, human IgG1, kappa)
# heavy 1: not shown
# heavy 2: not shown
# light: DIVMTQSPLSLPVTPGEPASISCQASESLVHSNRNTYLHWYLQKPGQSPQLLIYKVSNRFSGVPDRFSGSGSGTDFTLKISRVEAEDVGVYYCSQNTHVPPTFGQGTKVEIERTVAAPSVFIFPPSDEQLKSGTASVVCLLNNFYPREAKVQWKVDNALQSGNSQESVTEQDSKDSTYSLSSTLTLSKADYEKHKVYACEVTHQGLSSPVTKSFNRGEC
# notes: Heterodimerized anti-glypican-3 IgG1; alteration in the GpH7-B3 chain only; also called He Ab
# B2: GpH7-A5/GpH7-B3 variant G237_03V/GpL16-k0 (antibody, human IgG1, kappa)
# heavy 1: not shown
# heavy 2: not shown
# light: B1 light
# notes: as for B1
# B3: GpH7-A5/GpH7-B3 variant G237_04F/GpL16-k0 (antibody, human IgG1, kappa)
# heavy 1: not shown
# heavy 2: not shown
# light: B1 light
# notes: as for B1
# B4: GpH7-A5/GpH7-B3 variant G237_09D/GpL16-k0 (antibody, human IgG1, kappa)
# heavy 1: not shown
# heavy 2: not shown
# light: B1 light
# notes: as for B1
# B5: GpH7-A5/GpH7-B3 variant G237_13S/GpL16-k0 (antibody, human IgG1, kappa)
# heavy 1: not shown
# heavy 2: not shown
# light: B1 light
# notes: as for B1
# B6: GpH7-A5/GpH7-B3 variant G237_14T/GpL16-k0 (antibody, human IgG1, kappa)
# heavy 1: not shown
# heavy 2: not shown
# light: B1 light
# notes: as for B1
# B7: GpH7-A5/GpH7-B3 variant G237_18N/GpL16-k0 (antibody, human IgG1, kappa)
# heavy 1: not shown
# heavy 2: not shown
# light: B1 light
# notes: as for B1
# B8: GpH7-A5/GpH7-B3 variant G237_20W/GpL16-k0 (antibody, human IgG1, kappa)
# heavy 1: not shown
# heavy 2: not shown
# light: B1 light
# notes: as for B1
# B9: GpH7-A5/GpH7-B3 variant L234_10E/GpL16-k0 (antibody, human IgG1, kappa)
# heavy 1: not shown
# heavy 2: not shown
# light: B1 light
# notes: as for B1
# B10: GpH7-A5/GpH7-B3 variant L235_09D/GpL16-k0 (antibody, human IgG1, kappa)
# heavy 1: not shown
# heavy 2: not shown
# light: B1 light
# notes: as for B1
# B11: GpH7-A5/GpH7-B3 variant L235_20W/GpL16-k0 (antibody, human IgG1, kappa)
# heavy 1: not shown
# heavy 2: not shown
# light: B1 light
# notes: as for B1
# B12: GpH7-A5/GpH7-B3 variant P238_01G/GpL16-k0 (antibody, human IgG1, kappa)
# heavy 1: not shown
# heavy 2: not shown
# light: B1 light
# notes: as for B1
# B13: GpH7-A5/GpH7-B3 variant P238_07I/GpL16-k0 (antibody, human IgG1, kappa)
# heavy 1: not shown
# heavy 2: not shown
# light: B1 light
# notes: as for B1
# B14: GpH7-A5/GpH7-B3 variant P238_08L/GpL16-k0 (antibody, human IgG1, kappa)
# heavy 1: not shown
# heavy 2: not shown
# light: B1 light
# notes: as for B1
# B15: GpH7-A5/GpH7-B3 variant P238_09D/GpL16-k0 (antibody, human IgG1, kappa)
# heavy 1: not shown
# heavy 2: not shown
# light: B1 light
# notes: as for B1
# B16: GpH7-A5/GpH7-B3 variant P238_10E/GpL16-k0 (antibody, human IgG1, kappa)
# heavy 1: not shown
# heavy 2: not shown
# light: B1 light
# notes: as for B1
# B17: GpH7-A5/GpH7-B3 variant P238_16H/GpL16-k0 (antibody, human IgG1, kappa)
# heavy 1: not shown
# heavy 2: not shown
# light: B1 light
# notes: as for B1
# B18: GpH7-A5/GpH7-B3 variant P238_18N/GpL16-k0 (antibody, human IgG1, kappa)
# heavy 1: not shown
# heavy 2: not shown
# light: B1 light
# notes: as for B1
# B19: GpH7-A5/GpH7-B3 variant S239_01G/GpL16-k0 (antibody, human IgG1, kappa)
# heavy 1: not shown
# heavy 2: not shown
# light: B1 light
# notes: as for B1
# B20: GpH7-A5/GpH7-B3 variant S239_06M/GpL16-k0 (antibody, human IgG1, kappa)
# heavy 1: not shown
# heavy 2: not shown
# light: B1 light
# notes: as for B1
# Molecular target: T1, FcγRIIb
# Test: SPR (Biacore), antibody captured, FcγR as analyte; relative to HeCon Ab
# Description: (§1) The heterodimerized antibodies He Abs in which one of the H chains was introduced with an alteration were assayed for their binding activities to each activating FcγR and inhibitory FcγR according to the method described in Example 4. […] The activating FcγRs in FIGS. 26, 27, 28, and 29 are FcγRIa, FcγRIIa (R), FcγRIIa (H), and FcγRIIIa, respectively.
# (§2) Analysis of interaction between objective antibody and the FcγR was carried out using Biacore T100 (GE Healthcare). HBS-EP+ (GE Healthcare) was used as the running buffer, and the measurement temperature was set to 25° C. Chips produced by immobilizing the antigen peptide by the amine coupling method to a Series S Sencor Chip CM5 (GE Healthcare), or alternatively, chips produced by allowing preliminarily biotinylated antigen peptides to interact with and immobilize onto a Series S Sensor Chip SA (certified) (GE Healthcare) were used. Antibodies of interest were captured onto an antigen peptide-immobilized chip, and allowed to interact to each FcγR diluted with running buffer. To regenerate and repeatedly use the chip, the antibodies captured on the chip were washed off by reacting 10 mM glycine-HCl, pH 1.5.
row,Binder,He/Con_2b
1,B1,124 % of GpH7-A5/GpH7-B3/GpL16-k0 (=100)
2,B2,61.4 % of GpH7-A5/GpH7-B3/GpL16-k0 (=100)
3,B3,149 % of GpH7-A5/GpH7-B3/GpL16-k0 (=100)
4,B4,223 % of GpH7-A5/GpH7-B3/GpL16-k0 (=100)
5,B5,111 % of GpH7-A5/GpH7-B3/GpL16-k0 (=100)
6,B6,54.8 % of GpH7-A5/GpH7-B3/GpL16-k0 (=100)
7,B7,180 % of GpH7-A5/GpH7-B3/GpL16-k0 (=100)
8,B8,193 % of GpH7-A5/GpH7-B3/GpL16-k0 (=100)
9,B9,118 % of GpH7-A5/GpH7-B3/GpL16-k0 (=100)
10,B10,106 % of GpH7-A5/GpH7-B3/GpL16-k0 (=100)
11,B11,147 % of GpH7-A5/GpH7-B3/GpL16-k0 (=100)
12,B12,56 % of GpH7-A5/GpH7-B3/GpL16-k0 (=100)
13,B13,80 % of GpH7-A5/GpH7-B3/GpL16-k0 (=100)
14,B14,204 % of GpH7-A5/GpH7-B3/GpL16-k0 (=100)
15,B15,221 % of GpH7-A5/GpH7-B3/GpL16-k0 (=100)
16,B16,232 % of GpH7-A5/GpH7-B3/GpL16-k0 (=100)
17,B17,115 % of GpH7-A5/GpH7-B3/GpL16-k0 (=100)
18,B18,73.2 % of GpH7-A5/GpH7-B3/GpL16-k0 (=100)
19,B19,144 % of GpH7-A5/GpH7-B3/GpL16-k0 (=100)
20,B20,101 % of GpH7-A5/GpH7-B3/GpL16-k0 (=100)

# Molecular target: T2, FcγRIIa H
# Test: as above
# Description: as §1, §2
row,Binder,He/Con_2aH
1,B1,34 % of GpH7-A5/GpH7-B3/GpL16-k0 (=100)
2,B2,39.4 % of GpH7-A5/GpH7-B3/GpL16-k0 (=100)
3,B3,41.4 % of GpH7-A5/GpH7-B3/GpL16-k0 (=100)
4,B4,11.1 % of GpH7-A5/GpH7-B3/GpL16-k0 (=100)
5,B5,29.8 % of GpH7-A5/GpH7-B3/GpL16-k0 (=100)
6,B6,31.8 % of GpH7-A5/GpH7-B3/GpL16-k0 (=100)
7,B7,15.2 % of GpH7-A5/GpH7-B3/GpL16-k0 (=100)
8,B8,31.6 % of GpH7-A5/GpH7-B3/GpL16-k0 (=100)
9,B9,88.3 % of GpH7-A5/GpH7-B3/GpL16-k0 (=100)
10,B10,75.8 % of GpH7-A5/GpH7-B3/GpL16-k0 (=100)
11,B11,118 % of GpH7-A5/GpH7-B3/GpL16-k0 (=100)
12,B12,37.3 % of GpH7-A5/GpH7-B3/GpL16-k0 (=100)
13,B13,57.6 % of GpH7-A5/GpH7-B3/GpL16-k0 (=100)
14,B14,84.6 % of GpH7-A5/GpH7-B3/GpL16-k0 (=100)
15,B15,87.5 % of GpH7-A5/GpH7-B3/GpL16-k0 (=100)
16,B16,77.1 % of GpH7-A5/GpH7-B3/GpL16-k0 (=100)
17,B17,45.9 % of GpH7-A5/GpH7-B3/GpL16-k0 (=100)
18,B18,53.5 % of GpH7-A5/GpH7-B3/GpL16-k0 (=100)
19,B19,97 % of GpH7-A5/GpH7-B3/GpL16-k0 (=100)
20,B20,98.6 % of GpH7-A5/GpH7-B3/GpL16-k0 (=100)

# Source: US20180155451A1 (published 2018)
